{"source": "paper PMC2663784", "binders": {"B1": {"name": "humanized 3S193 VL-0-VH scFv multimer (scFv, V domains shown)", "VH": "EVQLVESGGGVVQPGRSLRLSCSTSGFTFSDYYMYWVRQAPGKGLEWVAYMSNVGAITDYPDTVKGRFTISRDNSKNTLFLQMDSLRPEDTGVYFCARGTRDGSWFAYWGQGTPVTVSS", "VL": "DIQMTQSPSSLSASVGDRVTITCRSSQRIVHSNGNTYLEWYQQTPGKAPKLLIYKVSNRFSGVPSRFSGSGSGTDFTFTISSLQPEDIATYYCFQGSHVPFTFGQGTKLQIT"}}, "target": "humanized 3S193 VL-0-VH scFv multimer (humanized (mouse CDRs on human frameworks))", "test": "SEC", "note": "Several values for one entry are separate records, joined by “and”; a condition that tells them apart may be missing. Equal entries are not always repeated."}
{"binder": "B1", "values": [{"measurement": "stoichiometry N", "result": "3 and 4"}]}
